Assay results reported in ChEMBL document CHEMBL1275523.

Assays:
Format in all cases: cell-based
[1] = substrate: CC(=O)N[C@H]1[C@H]([C@H](O)[C@H](O)CO)O[C@@](Oc2ccc3c(C)cc(=O)oc3c2)(C(=O)O)C[C@@H]1O; assay: Activity of human NEU4 expressed in HEK293 cells by fluorometric high-performance liquid chromatography
[2] = substrate: CCCCCCCCCCCCC/C=C/[C@@H](O)[C@H](CO[C@@H]1O[C@H](CO)[C@@H](O[C@@H]2O[C@H](CO)[C@H](O)[C@H](O[C@]3(C(=O)O)C[C@H](O)[C@@H](NC(C)=O)[C@H]([C@H](O)[C@H](O)CO)O3)[C@H]2O)[C@H](O)[C@H]1O)NC(=O)CCCCCCCCCCCCCCCCCCCCCC; assay: Activity of human NEU3 expressed in HEK293 cells by fluorometric high-performance liquid chromatography
[3] = substrate: CC(=O)N[C@H]1[C@H]([C@H](O)[C@H](O)CO)O[C@@](Oc2ccc3c(C)cc(=O)oc3c2)(C(=O)O)C[C@@H]1O; assay: Activity of human NEU2 expressed in HEK293 cells by fluorometric high-performance liquid chromatography

B1: Sialidase-4 (Homo sapiens), Q8WWR8 (protein)
chain: MGVPRTPSRTVLFERERTGLTYRVPSLLPVPPGPTLLAFVEQRLSPDDSHAHRLVLRRGTLAGGSVRWGALHVLGTAALAEHRSMNPCPVHDAGTGTVFLFFIAVLGHTPEAVQIATGRNAARLCCVASRDAGLSWGSARDLTEEAIGGAVQDWATFAVGPGHGVQLPSGRLLVPAYTYRVDRRECFGKICRTSPHSFAFYSDDHGRTWRCGGLVPNLRSGECQLAAVDGGQAGSFLYCNARSPLGSRVQALSTDEGTSFLPAERVASLPETAWGCQGSIVGFPAPAPNRPRDDSWSVGPGSPLQPPLLGPGVHEPPEEAAVDPRGGQVPGGPFSRLQPRGDGPRQPGPRPGVSGDVGSWTLALPMPFAAPPQSPTWLLYSHPVGRRARLHMGIRLSQSPLDPRSWTEPWVIYEGPSGYSDLASIGPAPEGGLVFACLYESGARTSYDEISFCTFSLREVLENVPASPKPPNLGDKPRGCCWPS
B1 gave a Km [1] of 20.3 µM.

B2: Sialidase-3 (Homo sapiens), Q9UQ49 (protein)
chain: MEEVTTCSFNSPLFRQEDDRGITYRIPALLYIPPTHTFLAFAEKRSTRRDEDALHLVLRRGLRIGQLVQWGPLKPLMEATLPGHRTMNPCPVWEQKSGCVFLFFICVRGHVTERQQIVSGRNAARLCFIYSQDAGCSWSEVRDLTEEVIGSELKHWATFAVGPGHGIQLQSGRLVIPAYTYYIPSWFFCFQLPCKTRPHSLMIYSDDLGVTWHHGRLIRPMVTVECEVAEVTGRAGHPVLYCSARTPNRCRAEALSTDHGEGFQRLALSRQLCEPPHGCQGSVVSFRPLEIPHRCQDSSSKDAPTIQQSSPGSSLRLEEEAGTPSESWLLYSHPTSRKQRVDLGIYLNQTPLEAACWSRPWILHCGPCGYSDLAALEEEGLFGCLFECGTKQECEQIAFRLFTHREILSHLQGDCTSPGRNPSQFKSN
In the case of B2, the Km [2] is reported as 45.6 µM.

B3: Sialidase-2 (Homo sapiens), Q9Y3R4 (protein)
chain: MASLPVLQKESVFQSGAHAYRIPALLYLPGQQSLLAFAEQRASKKDEHAELIVLRRGDYDAPTHQVQWQAQEVVAQARLDGHRSMNPCPLYDAQTGTLFLFFIAIPGQVTEQQQLQTRANVTRLCQVTSTDHGRTWSSPRDLTDAAIGPAYREWSTFAVGPGHCLQLHDRARSLVVPAYAYRKLHPIQRPIPSAFCFLSHDHGRTWARGHFVAQDTLECQVAEVETGEQRVVTLNARSHLRARVQAQSTNDGLDFQESQLVKKLVEPPPQGCQGSVISFPSPRSGPGSPAQWLLYTHPTHSWQRADLGAYLNPRPPAPEAWSEPVLLAKGSCAYSDLQSMGTGPDGSPLFGCLYEANDYEEIVFLMFTLKQAFPAEYLPQ
Protein B3 has a Km [3] of 1800 µM.
